Paper PMC4624786

B1: unnamed (parent)
chain 1: MSMPDAMPLPGVGEELKQAKEIEDAEKYSFMATVTKAPKKQIQFADDMQEFTKFPTKTGRRSLSRSISQSSTDSYSSAASYTDSSDDEVSPREKQQTNSKGSSNFCVKNIKQAEFGRREIEIAEQDMSALISLRKRAQGEKPLAGAKIVGCTHITAQTAVLIETLCALGAQCRWSACNIYSTQNEVAAALAEAGVAVFAWKGESEDDFWWCIDRCVNMDGWQANMILDDGGDLTHWVYKKYPNVFKKIRGIVEESVTGVHRLYQLSKAGKLCVPAMNVNDSVTKQKFDNLYCCRESILDGLKRTTDVMFGGKQVVVCGYGEVGKGCCAALKALGAIVYITEIDPICALQACMDGFRVVKLNEVIRQVDVVITCTGNKNVVTREHLDRMKNSCIVCNMGHSNTEIDVTSLRTPELTWERVRSQVDHVIWPDGKRVVLLAEGRLLNLSCSTVPTFVLSITATTQALALIELYNAPEGRYKQDVYLLPKKMDEYVASLHLPSFDAHLTELTDDQAKYLGLNKNGPFKPNYYRY
chain 2: MASASSGPAAAGFSSLDAGAPAGTAAASGIKRATVSEGPSASVMPVKKIGHRSVDSSGETTYKKTTSSALKGAIQLGITHTVGSLSTKPERDVLMQDFYVVESIFFPSEGSNLTPAHHYNDFRFKTYAPVAFRYFRELFGIRPDDYLYSLCSEPLIELSNSGASGSLFYVSSDDEFIIKTVQHKEAEFLQKLLPGYYMNLNQNPRTLLPKFYGLYCVQAGGKNIRIVVMNNLLPRSVKMHMKYDLKGSTYKRRASQKEREKTLPTFKDLDFLQDIPDGLFLDADMYSALCKTLQRDCLVLQSFKIMDYSLLMSIHNMDHAQREPTSNDTQYSADTRRPAPQKALYSTAMESIQGEARRGGTVETEDHMGGIPARNNKGERLLLYIGIIDILQSYRFVKKLEHSWKALVHDGDTVSVHRPGFYAERFQRFMCNTVFKKIPLKPSPTKKFRSGPSFSRRSGPSGNSCTSQLMASGEHRAQVTTKAEVEPDVHLGRPDVLPQTPPLEEISEGSPVPGPSFSPVVGQPLQILNLSSTLEKLDVAESEFTH
B2: unnamed (parent)
chain 1: B1 chain 1
chain 2: MATPSNLGSSVLASKTKTKKKHFVAQKVKLFRASDPLLSVLMWGVNHSINELSHVQIPVMLMPDDFKAYSKIKVDNHLFNKENMPSHFKFKEYCPMVFRNLRERFGIDDQDFQNSLTRSAPLPNDSQARSGARFHTSYDKRYVIKTITSEDVAEMHNILKKYHQYIVECHGVTLLPQFLGMYRLNVDGVEIYVIVTRNVFSHRLSVYRKYDLKGSTVAREASDKEKAKELPTLKDNDFINEGQKIYIDDSNKKIFLEKLKKDVEFLAQLKLMDYSLLVGIHDVERAEQEEVECEENEGEEEGESDGAHPIGTPPDSPGNTLNSSPPLAPGEFDPNIDVYAIKCHENAPRKEVYFMAIIDILTHYDAKKKAAHAAKTVKHGAGAEISTVNPEQYSKRFLDFIGHILT

Variants of: B1
Assay: co-immunoprecipitation, Western blot quantification
Conditions: with partner chain of the complex shown; COS-7 cells; n = 4; parent: 100; read off a plot

Row | percent of parent | Variant
1 | 43 % of WT | chain 1 S84A
2 | 120 % of WT | chain 1 S90A
3 | 57 % of WT | chain 1 S80A
4 | 90 % of WT | chain 1 T72A
5 | 26 % of WT | chain 1 T82A
6 | 81 % of WT | chain 1 S85A

The remaining lines, values behind:

Row | Variant | percent of parent
7 | chain 1 S70A | 50 % of WT
8 | chain 1 S71A | 3 % of WT
9 | chain 1 S77A | 65 % of WT
10 | chain 1 S74G | 14 % of WT
11 | chain 1 S68A | 2 % of WT
12 | chain 1 S64A | 83 % of WT
13 | chain 1 S66A | 49 % of WT
14 | chain 1 S76G | 100 % of WT

Variants of: B2
Assay: as above
Conditions: with partner chain of the complex shown; COS-7 cells; n = 4; parent: 100; read off a plot

Row | percent of parent | Variant
15 | 100 % of WT | chain 1 S84A
16 | 107 % of WT | chain 1 T82A
17 | 79 % of WT | chain 1 S80A
18 | 11 % of WT | chain 1 S77A
19 | 96 % of WT | chain 1 S85A
20 | 130 % of WT | chain 1 S90A
21 | 67 % of WT | chain 1 T72A

The remaining lines, values behind:

Row | Variant | percent of parent
22 | chain 1 S71A | 3 % of WT
23 | chain 1 S66A | 71 % of WT
24 | chain 1 S74G | 42 % of WT
25 | chain 1 S76G | 51 % of WT
26 | chain 1 S70A | 75 % of WT
27 | chain 1 S68A | 3 % of WT
28 | chain 1 S64A | 95 % of WT
